Assay results published in article PMC5943153 (Molecular microbiology, 2018).

T1: HP0221-T25 (NifU) (Helicobacter pylori strain 26695, UniProt O25009 2-326)
T1 sequence (looked up): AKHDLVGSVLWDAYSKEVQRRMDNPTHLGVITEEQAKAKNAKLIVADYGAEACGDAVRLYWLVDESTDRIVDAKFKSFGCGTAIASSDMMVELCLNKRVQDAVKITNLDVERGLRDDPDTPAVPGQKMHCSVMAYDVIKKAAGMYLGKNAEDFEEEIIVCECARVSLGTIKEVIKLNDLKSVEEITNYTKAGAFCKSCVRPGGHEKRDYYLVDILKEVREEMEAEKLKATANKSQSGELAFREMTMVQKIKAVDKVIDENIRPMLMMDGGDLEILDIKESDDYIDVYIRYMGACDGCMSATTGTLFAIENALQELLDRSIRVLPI

T2: T25-HP0221 (NifU) (Helicobacter pylori strain 26695, UniProt O25009 2-326)
T2 sequence (looked up): T1 sequence (looked up)

T3: T25-HP1492 (Nfu) (Helicobacter pylori strain 26695, UniProt O26025 2-89)
T3 sequence (looked up): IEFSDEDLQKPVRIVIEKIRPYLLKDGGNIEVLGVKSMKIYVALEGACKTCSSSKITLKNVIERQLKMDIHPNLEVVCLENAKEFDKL

B1: T18-HP0654 (natural protein, Helicobacter pylori strain 26695, UniProt O25368 2-360, looked up)
chain: DFLEKVLDNQVTESKELVRLYDYDLYTLGEVADRMRQNMHQKIVYFNVNRHLNPSNICADACKFCAFSAHRKNPNPYEMSLEEILEKVKNSYNKGIKEVHIVSAHNPNYSYEWYLKVFETIKQEMPNLHLKAMTAAEVHFLSVKFNKPFELVLEDMLKAGVDSMPGGGAEIFDEEIRRKICNGKVGSSRWLEIHAYWHKLGKMSNATMLFGHIENKIHRIDHMLRIKKIQSPKNQVENKEGGFNAFIPLLYQKENNYLNVEKSPSAIEILKTIAISRILLNNIPHIKAYWATLGLNLALVAQEFGANDLDGTIEIESIQSAAGAKSRHGLEKEDLIFKIKDAGFVAVERDSLYNFIQKF
B2: T18-HP0631 (natural protein, Helicobacter pylori strain 26695, UniProt O25348 2-384, looked up)
chain: FYDEKKTYQKIEERLDIVRSFNAHNEHKNLQDEFKGAGISRRDLLKWAGMMSTALALPASFAPLTLKAVEVANRLPVIWLHMAECTGCSESLLRSADPTIDSIIFDYINLEYHETIMVASGFQAEKSLHDAIEKHKNNYILMVEGGIPQGTEYFLTQGPNAETGAEECRKAAQYAAAIFAIGTCSSFGGVQAAYPNPSNAQPLHKIIDKPVINVPGCPPSEKNIVGNVLYYLMFGALPKLDAYNRPSWAYGNRIHDLCERRGHFDAGEFVEHFGDENAKRGFCLYKMGCKGPYTFNNCSKLRFNSHTSWPIGAGHGCIGCSEPNFWDTMSPFEEPLANRSIKTAFDGLGADKVADKVGTTLLSATAIGIVAHALLSKAIKNKE
B3: T18-HP0625 (natural protein, Helicobacter pylori strain 26695, UniProt O25342 2-359, looked up)
chain: LENRVKTKQIFIGGVAIGGDAPISTQSMTFSKTADIESTKNQIDRLKLAGADLVRVAVSNEKDALALKELKKVSPLPLIADIHFHYKFALIAAQSVDAIRINPGNIGSKEKIKAVVDACKEKNIPIRIGVNAGSLEKQFDQKYGPTPKGMVESALYNAKLLEDLDFTNFKISLKASDVIRTIEAYRMLRPLVIYPFHLGVTEAGNLFSSSIKSAMALGGLLMEGIGDTMRVSITGELENEIKVARAILRHSGRLKEGINWISCPTCGRIEANLVDMAIKVEKRLSHIKTPLDISVMGCVVNALGEAKHADMAIAFGNRSGLIIKEGKVIHKLAEKDLFETFVIEVENLAKEREKSLKD
B4: T18-HP0656 (natural protein, Helicobacter pylori strain 26695, UniProt O25370 2-383, looked up)
chain: ARNVKGYASTLTWTITRNTLNFLWEQGFKMRINREEILDLMKNAPLKELGQRALRVKQRLHPENLTTFIVDRNINYTNICFVDCKFCAFKRTLKEKDAYVLSYEEIDQKIEELLAIGGTQILFQGGVHPQLKIDYYENLVSHIAQKFPTITIHGFSAVEIDYISKISKLSLKEVLERLKNAGLSSIPGAGAEVLSDRVRDVIAPKKLSSDRWIEVHRMAHLCGIKSTATMMFGSVDNEEDVVEHLQRVRDLQDETGGFRAFILWSFQPNNTPLKEEIPSIKKASSNRYLRYLACSRIFLDNIQNIQSSWVTQGSMIGQLALLFGANDLGSVMMEENVVKAAGTSFCMNEAGMIELIEDIGSVAAKRNTAYEILKRYPAKAKV
B5: T18-HP0665 (natural protein, Helicobacter pylori strain 26695, UniProt O25376 2-457, looked up)
chain: QTIDFEKFSQYSKPGPRYTSYPTAVEFNENFNEESLKTAFFNHDNLKNPMPLSLYTHLPFCRSACYFCACSVIYTSLEEKKIRYISYLKKELALLKNAMDTNREVAQFHYGGGTPTFFSPIQLDEITQSIQEVFPNFSKDIEMSCEIDPRHFTKEHMQTLFDRGFNRLSFGVQDFDFEVQKAIHRIQPFEMVQESVKLARDYGIKSINFDLIYGLPNQTKEGFLKTLEWVLKLDPDRLAVFNYAHVPWVKKTMRKIDETLLPSLRDKLEILESLISFLEKANYQMIGMDHFAKSDNELYLALQKAELRRNFQGYTTKKFTQTIGIGVTSIGEGGDYYTQNYKDLHHYEKALDLGHLPVERGVALSQEDVLRKEVIMQMMSNLKLDYSKIEEKFSVDFKAHFKKELEKLKPYEEAGLLSFNSKGFEMTKTGGMLVRNMAMEFDAYLRGGEKHFSKTL
B6: T18-HP0285 (natural protein, Helicobacter pylori strain 26695, UniProt P56130 2-418, looked up)
chain: KKVYFKTFGCRTNLFDTQVMSENLKDFSTTLEEQEADIIIINSCTVTNGADSAVRSYAKKMARLDKEVLFTGCGVKTQGKELFEKGFLKGVFGHDNKEKINALLQEKKRFFIDDNLENKHLDTTMVSEFVGKTRAFIKIQEGCDFDCNYCIIPSVRGRARSFEERKILEQVGLLCSKGVQEVVLTGTNVGSYGKDRGSNIARLIKKLSQIAGLKRIRIGSLEPNQINDEFLELLEEDFLEKHLHIALQHSHDLMLERMNRRNRTKSDRELLETIASKNFAIGTDFIVGHPGESGSVFEKAFKNLESLPLTHIHPFIYSKRKDTPSSLMTDSVSLEDSKKRLNAIKDLIFHKNKAFRQLQLKLNTPLKALVEVQKDGEFKALDQFFNPIKIKSDKPLRASFLEIKEYEIKERENHAVF
B7: T18-HP0779 (natural protein, Helicobacter pylori strain 26695, UniProt P56418 2-852, looked up)
chain: KDFLEDYKKSVSERGSEGIPPLPLNAKQVQAVVEILTKDPTNAAFAKELLIHRVSPGVDEGAKVKAEFLAKLSQKKLECVHISALEATTLLGTMLGGYNVEPLIMGLESQDKNIAKESAKALKTTLLVYGSFDKIAAMSKTNALAKEVLESWANAEWFLNKEPLNECIEACVFKIDGETNTDDLSPASDAFTRSDIPLHAKAMLKNRIENYEQRIKAIKTKGVPVAYVGDVVGTGSSRKSATNSIMWHFGKDIPFVPNKRSGGIVIGGVIAPIFFATCEDSGALPIVADVKDLKEGDLIKIYPYKGEITLNDKVVSTFKLEPETLLDEVRASGRIPLIIGRGLTNKARKFLGLGESEAFKKPSAPKSDAKGYTLAQKIVGHACGVKGILPGTYCEPKVTTVGSQDTTGAMTRDEVKELASLKFDAPFVLQSFCHTAAYPKPSDVSLHATLPGFITQRGGVALHPGDGVIHTWLNRMGLPDTLGTGGDSHTRFPLGISFPAGSGLVAFAAVTGTMPLNMPESVLVRFKGEMNPGITLRDLVNAIPYYAIKKGLLTVEKKGKINVFNGRILEIEGLPDIKMEQAFELSDASAERSAAACVVRLNKEPMIEYLKSNIKLIDEMIASGYEDKETLKKRRDAMQAWVDNPVLLEPDSNAQYAAVIEIDVAEITEPILACPNDPDDVATLSEVLADTTGKRPHAIDEVFIGSCMTNIGHFRAFGEIVKNAPPSQARLWVVPPSKMDEQELINEGYYAIFGAAGARTEVPGCSLCMGNQARVRDNAVVFSTSTRNFDNRMGRGAKVYLGSAELGAACALLGRIPTKEEYMNLVSEKLESQKDKIYRYMNFNLMENFRL
B8: T18-HP1222 (natural protein, Helicobacter pylori strain 26695, UniProt O25820 2-948, looked up)
chain: RVEENYHAFFTEASGFLNERIFKDYLRRLAYGIDASCYRYIPKIVAWVKNEEEVQKLCVLAKKHGVSLTFRAAGSSLSGQAICDGVLVMVTHFFKDAQILDNAQSIQLSCGVIGSNANALLKPYHKKIGPDPSTINTAMIGGIVANNASGMCCGVEQNSYKTLKSLRVILADGTLLDTANQESVESFKNAHKDLIEGVLNLRKEILEDKELHALIKKKYEIKNTTGYSLNALIDFEDPIEIISHLFIGSEGTLGFISSVELECVKDYAYKTCALLFYENLERCAKAAQILAALKAKQPEMISSAELMDYACLKSVKGLEGMPSVVLEIKEPNACLLIQSESDDPLILENSMQTILNALSAIPVVLDSQISSDPSIYQSWWKIRKGIFPIAASKRKSQSSVIIEDICFSQEDFVEGAKAIEGLLKKHGFKDNGIIFGHALSGNLHFVVTPILENEAERKAFENLVSEMFLMVSKSSGSIKAEHGTGRMVAPFVEMEWGEKAYKIHKQIKELFDPNGILNPDVIITNDKEIHTKNLKSIYPIEEHLDMCMECGFCERICPSKDLSLTPRQRIVIHREVEHLKERVSHGHHEDQVLLDELLKESEYLAHATCAVCHMCSTLCPLEIDTGKIALNYYQKNPKGEKIASKILNHMQTTTSMARFSLKSARLVQNLIGSHNLVSLTKGIKKFIKPFPKAFYYMPKNNAYPLENKTLKSEEKVIYFSTCINRSFAPSNKMADKRCIQEVFESLCQKAKVSVMYPNGLNALCCGKAFINYTDLTKQNNEKNHAIFLQLSDKGKIPIVLDHSACSTHFFKQMKAYKDLKVYDLSVYIEEVLSPKLKFNPINEDIGLYTMCALKLENKEELLFNLAKKCTLGEIVIHKETGCCGFAGNKGFFTPELNESALNGFQAFYQSYDLKRGFSTSSTCEIGLSEKTRFSWQHIAYLVDACTL
B9: T18-HP0117 (natural protein, Helicobacter pylori strain 26695, UniProt P56080 2-308, looked up)
chain: AKENPPIVFGPVLSRRFGKSLGVDLSPSKKQCNYNCIYCELGKAKPIERMEEVIKVETLINAIQNALNNLTTPIDVLTITANGEPTLYPHLLELIQSIKPFLKGVKTLILSNGSLFYEPKVQQALKEFDIVKFSLDAIDLKAFERVDKPYSKDINKILEGILRFSQIYQGQLVAEVLLIKGVNDSANNLKLIAAFLKQINIARVDLSTIDRPSSFKAPKLSEDELLKCSLFFEGLCVSLPKRSITQAKKLISCGIDELLALISRRPLSAEEAPLILDSNAFKHLETLLNHKQITIKKVGSLEFYCAF

biological target: T1, HP0221-T25 (NifU); assay: two-hybrid

Compared with B1, B2 is lower in “growth OD595 in M63-maltose” value: 0.33 OD595 for the first, 0.24 OD595 for the second.

Going from B3 to B4, the “growth OD595 in M63-maltose” value falls from 0.37 OD595 to 0.26 OD595.

B5 was tested, and the “growth OD595 in M63-maltose” value was 0.06 OD595.

biological target: T2, T25-HP0221 (NifU); assay: two-hybrid

Going from B1 to B2, the “growth OD595 in M63-maltose” value falls from 0.09 OD595 to 0.08 OD595.

Compared with B3, B4 is higher in “growth OD595 in M63-maltose” value: 0.11 OD595 for the first, 0.13 OD595 for the second.

B5 was tested, and the “growth OD595 in M63-maltose” value was 0.07 OD595.

biological target: T3, T25-HP1492 (Nfu); assay: two-hybrid

Compared with B6, B7 is lower in “growth OD595 in M63-maltose” value: 0.21 OD595 for the first, 0.17 OD595 for the second.

First: B8
Second: B9
The “growth OD595 in M63-maltose” value of the first is lower: 0.06 OD595 for the first, 0.09 OD595 for the second.
